The data set is described as follows: yeast display, Sf9 membrane polyspecificity reagent, FACS + sequencing; frameworks hold sequencing errors. The essentials: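 Using colony PCR, genes from sorted yeast display clones were amplified, then sequenced on MiSeq at 2 × 250 and filtered by CDR length. The clones had been stained with 10% biotinylated, detergent-solubilized Sf9 membrane reagent for 1 hour at 4 °C and sorted by FACS into low and high (top ~1%) gates on anti-HA and streptavidin fluorescence. Polyreactivity labels come from the gate of origin.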
In the case of “QVQLVESGGGLVQAGGSLRLSCAASGFIFASYTMGWYRQAPGKERELVASISRDGGRTSYADSVKGRFTISRDNAKNTVYLQMNSLKPEDTAVYYCAARYWLRSEYWGQGTQVTVSS”, the “polyreactivity (PSR sort gate)” value is recorded as “high polyreactivity”.
Take “QVQLVESGGGLVQAGGSLRLSCAASGFIFATYAMGWYRQAPGKERELVAAINRGGSTYYADSVKGRFTISRDNAKNTVYLQMNSLKPEDTAVYYCAAAKRYPTSTWYGYWGQGTQVTVSS”: the “polyreactivity (PSR sort gate)” value was “high polyreactivity”.
Under “QVQLVESGGGLVQAGGSLRLSCAASGFIFATYGMGWYRQAPGKERELVATITSGGRTYYADSVKGRFTISRDNAKNTVYLQMNSLKPDDTAVYYCARASRRYWSMDYWGQGTQVSVSS” stands “high polyreactivity”.
For “QVQLVESGGGLVQAGGSLRLSCAASGFIFAVNAMGWYRQAPGKERELVAAISGRGGRTYYADSVKGRFTISRDYAKNTVYLQMNSLKPEDTAVYYCAARSYQYSYSFYWGQGTQVTVSS”, the “polyreactivity (PSR sort gate)” value was “high polyreactivity”.
Under “QVQLVESGGGLVQAGGSLRLSCAASGFIFAVNAMGWYRQAPGKERELVATIRATTTSTYADSVKGRFTISRDNAKNTVYLQMNSLKPEDTAVYYCATDVRTISFEYDYWGQGTQVTVSS” stands “low polyreactivity”; under “QVQLVESGGGLVQAGGSLRLSCAASGFIFAWYAMGWYRQAPGKERELVAAISYSGGSTYYADSVKGRFTISRDNAKNTVYLEMNSLKPEDTAVYYCNKVSRGGSYGHAFDYWGQGTQVTVSS”, “high polyreactivity”.
Under “QVQLVESGGGLVQAGGSLRLSCAASGFIFAWYAMGWYRQAPGKERELVASISVSDGSTYYADSVKGRFTISRDNAKNTVYLQMNSLKPEDTAVYYCAAEVSSDYYNSDYYWGQGTQVTVSS” stands “low polyreactivity”; under “QVQLVESGGGLVQAGGSLRLSCAASGFIFAWYAMGWYRQAPGKEREMVAAITSGGRTYYADSVKGRFTISRDNAKNTVYLQMNSLKPEDTAVYYCATDAVASHRPYKYGPQSGSWGQGTQVTVSS”, “high polyreactivity”.
Under “QVQLVESGGGLVQAGGSLRLSCAASGFIFAYNAMGWYRQAPGKERELVAAITGSGTRTYYADSVKGRFTISRDKAKNTVYLQMYSLKPEDTAVYYCAARFPRDTYYYWGQGTQVTVSS” stands “high polyreactivity”.
Consider “QVQLVESGGGLVQAGGSLRLSCAASGFIFAYYALGWYRQAPGKERELVAAITWSGGRTYYADSVKGRFTISRDNAKNTVYLQMNSLKPEDTAVYYCNAVRPSVDYGYWGQGTQVTVSS”, for which the “polyreactivity (PSR sort gate)” value is recorded as “high polyreactivity”.
Take “QVQLVESGGGLVQAGGSLRLSCAASGFIFAYYAMGWYRQAPGKERELVAAISSGGRTYYADSVKGRFTISRDNAKNTVYLQMNSLKPEDTAVYYCAAYYRLDYDYWGQGTQVTVSS”: the “polyreactivity (PSR sort gate)” value is listed as “high polyreactivity”.
Under “QVQLVESGGGLVQAGGSLRLSCAASGFIFCTNAMGWYRQAPGKERELVAGISRTGGRTYYADSVKGRFTISRDNAKNTVYLQMNSLKPEDTAVYYCAAVARRHKVYEYDYWGQGTQVTVSS” stands “high polyreactivity”; under “QVQLVESGGGLVQAGGSLRLSCAASGFIFDDNAMGWYRQAPGKERELVATITWSTGSTYYADSVKGRFTISRDNAKNTVYLQMNSLKPEDTAVYYCAKESYFYRYYLAYDYWGQGTQVTVSS”, “low polyreactivity”; under “QVQLVESGGGLVQAGGSLRLSCAASGFIFDFYTMGWYRQAPGKERELVAAITNGGSTYYADSVKGRFTISRDNAKNTVYLQMNSLKPEDTAVYYCAAYYRSRHHGYDSWGQGTQVTVSS”, “low polyreactivity”.
Under “QVQLVESGGGLVQAGGSLRLSCAASGFIFDFYTMGWYSQAPGKERELVAAITNGGSTYYADSVKGRFTISRDNAKNTVYLQMNSLKPEDTAVYYCAAYYRSRHHGYDSWGQGTQVTVSS” stands “low polyreactivity”; under “QVQLVESGGGLVQAGGSLRLSCAASGFIFDGNAMGWYRPAPGKERELVAAIRSGGRTNYADSVNGRFTISRDNAKNTVYLQMNSLKPEDTAVYYCAARSIYPYYYRRDNRYYYWGQGTQVTVSS”, “high polyreactivity”.
Under “QVQLVESGGGLVQAGGSLRLSCAASGFIFDGYAMGWYRQAPGKERELVAAISSSGGRTHYADSVKGRFTISRDNAKNTVYLQMNSLKPEDTAVYYCAVRFKWQGYNYWGQGTQVTVSS” stands “high polyreactivity”; under “QVQLVESGGGLVQAGGSLRLSCAASGFIFDINAMGWYRQAPGKERELVAAISYSGGSTYYADSVKGRFTISRDNAKNNVYLQMNSLKPEDTAVYYCAADSGPDSDEGDYWGQGTQVTVSS”, “low polyreactivity”.
On to “QVQLVESGGGLVQAGGSLRLSCAASGFIFDINAMGWYRQAPGTERELVADIRGGGSTYYADSVKGRFTISRDNAKNTVYVQMNSLKPEDTAVYYCNALDSYRHRPFDYWGQGTQVTVSS”, for which the “polyreactivity (PSR sort gate)” value is recorded as “low polyreactivity”.
Under “QVQLVESGGGLVQAGGSLRLSCAASGFIFDKYAMGWYRQAPGKERELVAAINWSGDSTYYADSVKGRFTISRDNAKNTVYLQMNSLKPEDTAVYYCNARRPRFRYDYWGQGTQVTVSS” stands “high polyreactivity”; under “QVQLVESGGGLVQAGGSLRLSCAASGFIFDKYSMGWYRQAPGKERELVAAITDTGGNTYYADSVKGRFTISRDNAKNTVYLQMNILKPEDTAVYYSNADYTDYQTYSATTYEYWGQGTQVTVSS”, “low polyreactivity”; under “QVQLVESGGGLVQAGGSLRLSCAASGFIFDPNAMGWYRLAPGKERELVAAISSSGGRTYYADSVKGRFTISRDNAKNTVYLQMNSLKPEDTAVYYCNARDYSGFQTGASAAFDYWGQGTQVTVSS”, “low polyreactivity”.
Under “QVQLVESGGGLVQAGGSLRLSCAASGFIFDPYAMGWYRPAPGKERELVAVITYSAGSTYADSVNGRFTISRDNAKNTVYLQMNSLKPEDTAVYYCAKRWWYNVPLGVLYDYWGQGTQVTVSS” stands “low polyreactivity”.
Under “QVQLVESGGGLVQAGGSLRLSCAASGFIFDPYAMGWYRQAPGKERELVASINTRGDRTSYADSVKGRFTISRDNAKNTVYLQMNSLKPEDTAVYYCNADAVDQVGPDDDYWGQGTQVTVSS” stands “low polyreactivity”; under “QVQLVESGGGLVQAGGSLRLSCAASGFIFDRNTMGWYRQAPGKERELVATISSTGTTNYADSVKGRFTISRDNAKNTVYLQMNSLKPEDTAVYYCNAYPRWRYVSYYRSYRYDYWGQGTQVTVSS”, “high polyreactivity”.
As to “QVQLVESGGGLVQAGGSLRLSCAASGFIFDTNAMGLYRQAPGKERELVATISTSGGSTSYADSVKGRFTISRDNAKNTVYLQMNSLTPEDTAVYYCAARWYFPDRVKYDYWGQGTQVTVSS”, the “polyreactivity (PSR sort gate)” value is on record as “low polyreactivity”.
Under “QVQLVESGGGLVQAGGSLRLSCAASGFIFDTNAMGWSRQAPGKDRELVARISSSAGSTYYAVSVKGRFTISRDNAKNTVYLLMNSLKPEDTAVYYCNADTGLGSLDFDKRDYWGQGTQVTVSS” stands “low polyreactivity”.
Under “QVQLVESGGGLVQAGGSLRLSCAASGFIFDTYAMGWYRQAPGKERELVAAISWTGTDTYYADSVKGRFTISRDNAKNTVYLQMNSLKPEDTAVYYCATDYGWLYINSIWEYDYWGQGTQVTVSS” stands “high polyreactivity”; under “QVQLVESGGGLVQAGGSLRLSCAASGFIFDWNTMGWYRQAPGKERELVAAITESSGSTYYADSVKGRFTISRDNAKNTVYLQMNSLKPEDTAVYYCAAELDVYVSIGSRFHFDYWGQGTQVTVSS”, “low polyreactivity”; under “QVQLVESGGGLVQAGGSLRLSCAASGFIFDYNAMGWYRQAPGKERELVAAITSGGGSTYYADSVKGRFTISRDNAKNTVYLQMNSLKPEDTAVYYCNAVPSQHDEFDYWGQGTQVTVSS”, “low polyreactivity”.
